B1: PEX5 peptide 240-255 (Peroxisomal targeting signal 1 receptor), 16-mer library wild type / PEX14 Pex14 (PEX14 PEX14, residues 16-84) (parent)
chain 1: AEQWAAEFIQQQGTSD
chain 2: TPGSENVLPREPLIATAVKFLQNSRVRQSPLATRRAFLKKKGLTDEEIDMAFQQSGTAADEPSSLGPAT
B2: KIAA1671 peptide 600-615 (Uncharacterized protein KIAA1671), 16-mer library wild type / MDM2 SWIB (MDM2 SWIB/MDM2 domain, residues 17-125) (parent)
chain 1: TPEDDRSFQTVWATVF
chain 2: SQIPASEQETLVRPKPLLLKLLKSVGAQKDTYTMKEVLFYLGQYIMTKRLYDEKQQHIVYCSNDLLGDLFGVPSFSVKEHRKIYTMIYRNLVVVNQQESSDSGTSVSEN

Variants of: B1
Test: proteomic peptide phage display deep mutational scan (ProP-PD DMS): M13 P8 16-mer library selected against immobilised GST-tagged bait for four days (rounds), NGS of the eluted pools per day and pseudo-replica
Conditions: with PEX14 Pex14 (PEX14 PEX14, residues 16-84); bait immobilised on MaxiSorp plates (10 µg), library pre-cleared on GST, 2 h binding at 4 °C, five washes; one round per day, days 1-4; value from days 2 and 3; keep out of graded; scale: average fractional NGS count over selection days 2 and 3

Screen value of substitutions, site by site:
chain 1 F8: D 0.000118; H 0.000234; I 9.8e-05; K 0; V 0
chain 1 G13: L 0; N 0.000117; R 0
chain 1 I9: P 0.000232; S 0.00015
chain 1 Q3: E 0.000171; F 0; Y 9.56e-05
chain 1 Q10: S 0.00027
chain 1 Q11: D 0; T 0
chain 1 Q12: N 0.000241; R 0; T 0.000175
chain 1 S15: E 0.000269; F 9.56e-05; M 0.000166; N 0
chain 1 T14: Y 0.000275
chain 1 W4: D 0.000272; G 6.63e-05; H 5.68e-05; L 9.31e-05; N 0; P 0; Q 0; R 0.000107

Variants of: B2
Test: as above
Conditions: with MDM2 SWIB (MDM2 SWIB/MDM2 domain, residues 17-125); bait immobilised on MaxiSorp plates (10 µg), library pre-cleared on GST, 2 h binding at 4 °C, five washes; one round per day, days 1-4; value from days 2 and 3; keep out of graded; scale: average fractional NGS count over selection days 2 and 3

Screen value of substitutions, site by site:
chain 1 A13: D 1.83e-05; G 0; H 0.000327; I 0.000104; L 9.44e-05; M 0.000146; N 0.000173; P 0; Q 5.55e-05; R 5.94e-05; S 0.000227; T 0.00011; V 4.31e-05; W 0.000391
chain 1 D4: A 0.00011; G 0.000914; I 8.68e-05; M 4.28e-05; N 1.9e-05; P 0.000107; Q 0.000505; S 0.0004; T 0.00033; V 0.000129; Y 2.12e-05
chain 1 D5: A 0.000323; F 3.53e-05; G 0.00021; H 6.55e-05; I 1.66e-05; K 1.66e-05; L 0.000477; M 0.000189; P 0.000202; Q 2.45e-05; S 0.00089; T 0.000201; V 0.000143; W 0.000664; Y 8.89e-05
chain 1 E3: A 0.00018; F 1.83e-05; G 0.000104; H 0.000765; I 0.000166; K 0.000111; L 0.000185; N 4.32e-05; P 5.24e-05; Q 4.56e-05; R 0.000648; S 0.00105; T 0.000371; V 0.00284; W 0.000218; Y 0.00068
chain 1 F8: A 0.00012; K 0; M 0.000128; N 0.000113; P 7.93e-05; R 0; W 0.000346; Y 1.9e-05
chain 1 F16: A 0; D 0; E 0; G 0; I 5.77e-05; M 4.28e-05; S 0.000197; W 1.6e-05; Y 0
chain 1 P2: A 8.35e-05; D 6.18e-05; E 6.83e-05; F 5.33e-05; G 0.000243; H 4.89e-05; I 0.000159; L 6.52e-05; M 0.000288; Q 9.58e-05; R 3.9e-05; S 7.3e-05; T 0.000455; V 3.63e-05; Y 0.000913
chain 1 Q9: A 0.000111; D 0; E 8.49e-05; F 5.33e-05; G 0.000111; I 0.000133; L 0.00104; M 0.000681; N 0; P 7.92e-05; S 8.1e-05; T 4.79e-05; W 0.000575; Y 0.000186
chain 1 R6: A 0.000223; E 6.31e-05; F 0.000483; G 9.01e-05; H 0.000397; I 0.000114; K 0.000243; L 0.000264; M 0.000232; Q 0.000155; S 0.00021; T 4.17e-05; V 0.000461; W 0.0002; Y 0.000693
chain 1 S7: F 3.36e-05; K 6.18e-05; L 0.000105; N 5.84e-05; P 2.82e-05; Q 0.000194; T 6.52e-05; W 0.000517
chain 1 T10: A 0.000165; D 1.9e-05; F 0.000114; H 0.000113; I 0.000209; L 6.08e-05; M 0.00046; P 1.43e-05; Q 0.000116; S 0.000471
